Test results taken from the supplement of paper PMC10567573.

B1: RSPH3 (parent)
chain: LELQRQREARKRALARKQAQEQLR
B2: BCL2L13 (parent)
chain: QSLDQEILLKVKTEIEEELKSLDK

Variants of: B1
Test: protein stability index of a GFP-peptide fusion (GPS, HEK-293T) (PSI 1-6); higher = more stable
Conditions: c terminus: a fixed tail appended
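Note: lentivirally expressed fusions sorted by FACS into six bins by GFP to DsRed ratio, PSI derived from sequencing read proportions per bin multiplied by bin number.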

Protein stability index of substitutions, site by site:
Q6: P 3.64, S 3.76, Y 3.71, V 3.37, E 4.46, D 4.05, G 4.55, L 3.33
E2: M 2.92, T 3.15, L 2.6, I 2.34, R 3.57, F 2.56, S 3.56, Q 3.93, W 2.59, D 3.91
A9: D 3.63, M 3.84, S 4.01, R 4.11, W 2.86, F 2.73, K 3.68, P 4, T 3.31, Q 3.32, E 3.85, N 3.45, L 3.47
L3: S 4.14, V 4.29, C 3.12, R 3.54, M 3.6, T 4.35, F 3.81, E 5.04, D 4.14, K 4.17, Y 3.89, G 4.43, Q 3.9
R24: E 4.56, T 3.82, H 3.85, G 4.13, K 3.72, Q 4.54, C 4.13, I 3.46, Y 3.16, A 3.97, V 4.43, S 3.8, L 3.18, M 3.33, W 2.98, D 4.2
R16: C 3.57, I 3.7, G 4.46, L 4.25, F 3.43, P 4.32, E 4.26, W 3.74, D 3.99, Q 3.96, H 4.14, A 4.19
A15: W 3.53, I 3.15, V 3.69, Q 2.39, C 3.42, H 3.96, Y 3.61, P 4.2, M 2.79, S 4.04, L 4.05, N 4.32, R 3.15
E21: S 3.73, R 3.99, M 3.75, Y 3, Q 3.23, I 3.33, G 3.09, T 3.81, L 3.48, H 3.23, A 2.72, F 2.93, W 3.48
R10: S 4.2, G 4.26, Q 4.43, E 4.08, I 3.22, T 3.92, D 4.38, P 4.3, M 3.76
Q22: R 3.93, S 3.5, K 3.77, H 2.95, A 4.19, Y 3.01, L 3.63, P 3.79, E 3.8, M 2.92, F 3.04
L23: T 4.08, E 4.59, N 3.92, H 4.25, M 4.31, A 4.96, S 3.78, G 4.78, C 4.26
Q4: N 3.76, R 4.02, L 3.22, W 3.43, K 3.55, G 3.41, P 3.51, H 4.2, A 3.17
K11: E 4.35, M 3.5, N 3.8, D 4.51, V 2.74, H 4.44, S 4.11, C 2.94, G 4.44, F 3.46, Y 3.07, R 3.78, W 2.92, I 3.27
Q20: G 3.52, K 4.38, M 2.88, L 2.8, E 4.48, T 3.79, Y 2.45, D 4.74, C 3.35, V 3.78, N 3.11, P 4.32, H 3.77, S 3.77, R 3.79, A 3.61
L1: R 4.4, Y 3.76, E 4.26, P 4.45, A 3.16, C 4.05, G 4.14, D 4.08, F 3.22, K 3.78, Q 3.82
L14: C 3.74, D 4.66, F 3.74, K 3.46, H 4.32, I 3.67, W 2.65, Q 4.53
Q18: S 3.38, V 2.56, K 3.39, R 3.64, A 3.12, E 3.86, T 4.05, L 3.13, G 3.4, N 3.68, I 2.33, C 2.81
R12: L 3.22, P 4.25, M 4.18, H 3.71, S 3.81, Y 3.77, N 4.45, T 3.79, W 3.21, D 4.15, F 2.82, G 4.23
A19: M 3.37, I 3.55, Y 2.92, C 4.22, F 3.08, W 3.15, V 3.27, S 4.17
A13: W 3.73, S 3.77, I 3.76, Y 3.49, M 3.29, H 4.06, N 4.25, T 3.85, L 3.35, V 3.78, R 4.18
R7: D 4.49, F 4.1, L 4.2, W 3.46, E 4.31, P 3.71, K 3.56, Y 3.85
E8: T 4.06, M 3.43, C 3.64, H 3.83, N 3.44, G 3.66, W 3, I 2.38, R 4.26, A 3.99, D 3.81, Q 3.71, L 2.98
R5: I 3.77, T 4.17, H 4.21, Y 4.19, E 3.68, V 4.36, A 5.05, Q 4.32, L 3.25, N 3.72
K17: P 4.48, L 3.97, W 3.44, D 3.92, I 3.77, Q 4.15, G 4.66, H 4.17, F 3.95, V 4.31, Y 3.71, M 4.14

Variants of: B2
Test: as above
Conditions: c terminus: a fixed tail appended

Protein stability index: each site, then its substitutions
D23: K 4.33, Q 4.48
D4: F 2.34, C 4
K10: A 4.98, R 3.09, M 3.09, E 5.2
Q5: D 5.28, L 2.99, W 3.67
I15: A 5.33, S 5.72
E14: N 4.58, T 4.46, A 3.4, F 3.06, D 4.7
E16: Q 5.04, I 4.35, V 3.69
E17: F 3.54, D 5.13
S21: Y 4.25, L 4.46
L19: P 5.64, R 5.57
L22: S 5.41, V 5.2, H 5.47
E18: G 4.62, R 4.16, F 3.8, D 5.58, V 3.69, S 4.61
L3: E 5.63, N 5.64, W 4.66, P 4.59, Q 5.41
K24: Y 4.25
K12: E 5.6
E6: Y 3.47, D 4.83
V11: G 5.36, T 5.51, K 5.99
S2: N 4.92, M 4.2
L9: G 5.13, V 5.26, N 5.48, I 4.29
L8: A 5.62, N 5.9, Q 5.42, M 5.37
Q1: A 5.04
K20: C 4.9
I7: N 5.33, M 5.3
T13: D 4.44
